Assays:
[1] = tested on: caspase-3/7 activity in MDA-MB-231 cells; experiment: Caspase-3/7 activity (kinetic apoptosis reagent, Incucyte ZOOM); format: cell-based, Human; settings: MDA-MB-231, various concentrations, 24 hours
Description: Cells were co-treated as previously described (N=12) with a kinetic caspase-3/7 apoptosis reagent from Essen Bioscience (Ann Arbor, Mich.). Caspase-3/7 activity was indicated by mean green fluorescence measured by the Incucyte ZOOM as described above.

MDA-MB-231 cells [2] = experiment: Doxorubicin sensitivity: cell viability (WST-1) with Dox with or without irisin; format: cell-based, Human; settings: 24 hours
Method: Cells were seeded overnight at a density of 5,000 cells/well, treated with or without varying concentrations of IM or INM (from 0.625 nM to 20 nM) (N=12). Cells were then incubated for 1 hour in medium containing 10% WST-1 cell proliferation reagent from Roche (Indianapolis, Ind.) and fluorescence was measured using a Wallac Victor3V 1420 Multilabel Counter from PerkinElmer (Waltham, Mass.). These methods were repeated with varying concentrations (from 0.156 μM to 10 μM) of the antineoplastic Doxorubicin (Dox) from Sigma (St. Louis, Mo.) dissolved in DMSO (using 0.1% for all treatments including control) with 2 nM IM or INM for 24 hours (N=8). At 24 hours, Dox uptake was measured using phase-contrast and fluorescence (N=24). Treatment concentrations and duration were determined empirically through pilot experiments and from previously published observations for Dox.^20

[3] = tested on: malignant and non-malignant breast epithelial cell; experiment: Cell metabolism (data not shown); format: cell-based, Human; settings: malignant and non-malignant cells
[4] = tested on: obesity-related cancer cells; settings: Moon et al., MTT endpoint assay; cited from earlier work
MDA-MB-231 cells [5] = experiment: Cell viability (WST-1) after irisin treatment for 24 hours; format: cell-based, Human; settings: 0.625 nM to 20 nM, compared with control
Method: (§1) Human non-malignant breast epithelial cells (MCF-10a), malignant breast epithelial cells (MCF-7), and malignant aggressive breast epithelial cells (MDA-MB-231) were purchased from American Type Culture Collection (Manassas, Va.). Cells were maintained under standard conditions (37° C. in a 5% CO2) using growth media as described in Supporting Information Table 1. Cells were treated with either human recombinant non-modified irisin (INM) from Cayman Chemical (Ann Arbor, Mich.) or human recombinant modified and active (glycosylated) irisin (IM) from PlexBio (San Francisco, Calif.) at concentrations ranging from 0.625 nM to 20 nM dissolved in culture media for 24 hours. Concentrations of irisin were determined empirically through pilot experiments based on and previously published observations.^9 MDA-MB-231 cells were labeled with red fluorescent protein (RFP) by lentiviral-transfection using CytoLight Red vector from Essen Bioscience (Ann. Arbor, Mich.). […]
(§2) Cells were seeded overnight at a density of 5,000 cells/well, treated with or without varying concentrations of IM or INM (from 0.625 nM to 20 nM) (N=12). Cells were then incubated for 1 hour in medium containing 10% WST-1 cell proliferation reagent from Roche (Indianapolis, Ind.) and fluorescence was measured using a Wallac Victor3V 1420 Multilabel Counter from PerkinElmer (Waltham, Mass.). […]

MCF-10a cells = experiment: as above; format: cell-based, Human; settings: 0.625 nM to 20 nM, 24 hours post treatment
Method: as §1, §2

RFP MDA-MB-231 cells = experiment: Cell proliferation by automated red object counting (Incucyte ZOOM); format: cell-based, Human; settings: 2 nM, 24 hours, compared with control
Method: as §1
RFP MDA-MB-231 cells were seeded overnight in 96-well plates at a density of 5,000 cells/well and treated with or without irisin at 2 nM (IM or INM) (N=64). Cell proliferation was measured by automated red object counting optimized for MDA-MB-231 cells using the Incucyte ZOOM live content imaging from Essen Bioscience (Ann Arbor, Mich.), measured every hour for 24 hours. […]

[6] = tested on: NFκB activity in MDA-MB-231 cells; experiment: NFκB-GFP reporter system; format: cell-based, Human; settings: MDA-MB-231, 24 hours
Method: Cells were transfected with a NFκB GFP-linked reporter system from Qiagen (Valencia, Calif.) before treatment with IM, INM, or TNF-α from R and D Systems (Minneapolis, Minn.) at various concentrations for 24 hours (N=12). NFκB activity was indicated by mean fluorescence measured by the Incucyte ZOOM as described above.

TNF-α [reference compound]
Caspase-3/7 activity [1]: significantly elevated

COc1cccc2c1C(=O)c1c(O)c3c(c(O)c1C2=O)C[C@@](O)(C(=O)CO)C[C@@H]3O[C@H]1C[C@H](N)[C@H](O)[C@H](C)O1 [Dox, Doxorubicin, reference compound]
Cell viability, Dox treatment alone (MDA-MB-231 cells [2]; MDA-MB-231, Dox 100 nM or 1.0 μM): not
Cell viability, Dox treatment alone (MDA-MB-231 cells [2]; MDA-MB-231, Dox 10 μM): reduced cell viability

B1: irisin: 112 aa peptide cleaved from FNDC5; term covers both non-modified (INM) and glycosylated (IM) irisin (protein)
chain: DSPSAPVNVTVRHLKANSAVVSWDVLEDEVVIGFAISQQKKDVRMLRFIQEVNTTTRSCALWDLEEDTEGIVHVQAISIQGQSPASEPVLFKTPREAEKMASKNKDEVTMKE
modifications: non-modified irisin
notes: 112 aa peptide cleaved from FNDC5; term covers both non-modified (INM) and glycosylated (IM) irisin
Breast epithelial cell metabolism [3]: not significantly altered
Cell proliferation in obesity-related cancer cells [4]: no significant affect on cell proliferation

B2: IM: human recombinant modified and active (glycosylated) irisin from PlexBio (protein, UniProt Q8NAU1 1-191, looked up)
Irisin: MQAARGGAGRPERPGRPGRGPERERERPPGAGAASPCAAPGLPAGGATIHPGSPSAWPPRARAALRLWLGCVCFALVQADSPSAPVNVTVRHLKANSAVVSWDVLEDEVVIGFAISQQKKDVRMLRFIQEVNTTTRSCALWDLEEDTEYIVHVQAISIQGQSPASEPVLFKTPREAEKMASKNKDEVTMKE
modifications: Irisin glycosylated
Enhancement of Dox killing by irisin (MDA-MB-231 cells [2]; MDA-MB-231, 2 nM irisin with Dox 100 nM to 10 μM): significantly enhanced Dox killing at 1.0 μM
Cell viability of MDA-MB-231 cells (MDA-MB-231 cells [5]): unaffected
Cell viability of MCF-10a cells (MCF-10a cells): decreased at the highest tested dose
Cell proliferation of MDA-MB-231 cells (RFP MDA-MB-231 cells): did not alter cell proliferation
NFκB activity [6]: did not alter NFκB activity
Caspase-3/7 activity [1]: failed to activate caspase-3/7 activity
